Data from patent US20170260274A1.

Tests used:
[1] = molecular target: epidermal growth factor receptor (EGFR) (human), P00533; experiment: cell-based or functional assay
[2] = molecular target: epidermal growth factor receptor (EGFR) (human), P00533; experiment: flow cytometry, equilibrium binding on EGFR-expressing A431 cells (apparent KD)

B1: Ranpirnase-DEN-scFv (protein)
chain: QDWLTFQKKHITNTRDVDCDNIMSTNLFHCKDKNTFIYSRPEPVKAICKGIIASKNVLTTSEFYLSDCNVTSRPCKYKLKKSTNKFCVTCENQAPVHFVGVGSCMVDRGWGNGCGLFGKGGIVEVQLVESGGGLVQPGGSLRLSCAASGFSLTNYGVHWVRQAPGKGLEWLGVIWSGGNTDYNTPFTSRFTISRDNSKNTLYLQMNSLRAEDTAVYYCARALTYYDYEFAYWGQGTTVTVSSGGGGSGGGGSGGGGSDIQLTQSPSFLSASVGDRVTITCRASQSIGTNIHWYQQKPGKAPKLLIKYASESISGVPSRFSGSGSGTEFTLTISSLQPEDFATYYCQQNNNWPTTFGAGTKLEIKR
modifications: not checked
With B1 the IC50 (nM), cell viability, A431 [1] was 38 nM, the IC50 (nM), cell viability, HNO97 [1] was 411 nM and the IC50 (nM), cell viability, HNO211 [1] was 18 nM. For the same binder, the IC50 (nM), cell viability, HNO410 [1] was 308 nM, the fold increase in potency compared to Ranpirnase-GS-scFv, HNO211 cells [1] was 79 fold and the Kd [2] was 11.2 nM.
